From patent US20140120091A1 (University of Washington, published 2014) come the findings set out here.

The target in experiment [1] is T1, recombinant human CD40L (Peprotech, Catalog #310-02) (human, UniProt P29965 113-261).
T1 construct: Bought reagent; also called rCD40L; immobilized CD40L
T1 sequence (looked up): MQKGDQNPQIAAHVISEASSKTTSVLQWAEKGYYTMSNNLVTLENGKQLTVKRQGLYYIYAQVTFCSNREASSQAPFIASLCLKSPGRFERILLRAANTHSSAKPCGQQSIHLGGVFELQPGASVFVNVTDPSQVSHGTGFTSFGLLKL
The experiment is described as follows: CD40L antigen binding ELISA normalised to IgG sandwich ELISA, COS supernatants. As for the experimental part: Coated plates were washed twice in wash buffer: (PBS/0.05% Tween-20/0.01% Kathon), and blocked overnight at 4° C. in 200 ul/well PBS/2.5% BSA. Blocked plates were washed three times in wash buffer, and serial dilutions of each culture supernatant in (D-PBS, 0.2% BSA) added to successive wells in each plate: (20×, 40×, 80×, and 160× of each supernatant). Supernatant dilutions were incubated overnight at 4° C. Plates were washed three times in wash buffer, then incubated with HRP (horseradish peroxidase) conjugated goat anti-human IgG (Fc specific) (Catalog #109-036-008, Jackson Immunoresearch, West Grove, Pa.) at a 1:7,500 dilution in PBS for 1-2 hours at room temperature. Plates were washed 4-5 times in wash buffer, then 80 ul/well TMB Sureblue peroxidase substrate was added (Catalog #52-00-02, KPL Laboratories, Gaithersburg, Md.). Color was allowed to develop for 5-15 minutes, and reactions stopped by addition of 80 ul/well 1 N HCL. Plates were read using a Biotek SYNERGY® 2 (Biotek Instruments, Winooski, Vt.) plate reader at […], and data analyzed with Gen5 v2 software.
For orientation: In an ELISA, binding on a coated surface is turned into a signal by an enzyme label.

Experiment [2] addresses T2, recombinant human PCSK9-his6 (AcroBiosystems, Catalog # PC9-H5223) (human, UniProt Q8NBP7 31-692).
T2 construct: Bought reagent; also called PCSK9-his6 antigen; PCSK9-his 6 antigen; not shown: his6 tag
Description: PCSK9 antigen binding ELISA, fusion protein immobilized, PCSK9-his6 in solution, HRP anti-his6 detection.

Experiment [3] addresses T3, human CD40 ligand (CD40L, CD154) expressed on human Jurkat cells (human, UniProt P29965 1-261).
T3 construct: whole, on cells; also called CD40L on Jurkat cells; CD154 (CD40L) expressed on the surface of Jurkat cells
T3 sequence (looked up): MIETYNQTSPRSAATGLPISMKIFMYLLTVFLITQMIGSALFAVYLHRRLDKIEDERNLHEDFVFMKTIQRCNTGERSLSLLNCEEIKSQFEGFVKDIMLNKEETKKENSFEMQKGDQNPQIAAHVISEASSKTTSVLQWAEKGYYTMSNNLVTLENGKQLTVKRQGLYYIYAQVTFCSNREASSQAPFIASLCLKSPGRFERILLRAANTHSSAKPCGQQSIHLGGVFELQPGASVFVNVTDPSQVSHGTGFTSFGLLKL
Description: flow cytometry, serial dilutions of purified fusion protein on Jurkat cells, AF647 goat anti-human IgG detection.

T2 sequence (Q8NBP7 31-692 limits assumed): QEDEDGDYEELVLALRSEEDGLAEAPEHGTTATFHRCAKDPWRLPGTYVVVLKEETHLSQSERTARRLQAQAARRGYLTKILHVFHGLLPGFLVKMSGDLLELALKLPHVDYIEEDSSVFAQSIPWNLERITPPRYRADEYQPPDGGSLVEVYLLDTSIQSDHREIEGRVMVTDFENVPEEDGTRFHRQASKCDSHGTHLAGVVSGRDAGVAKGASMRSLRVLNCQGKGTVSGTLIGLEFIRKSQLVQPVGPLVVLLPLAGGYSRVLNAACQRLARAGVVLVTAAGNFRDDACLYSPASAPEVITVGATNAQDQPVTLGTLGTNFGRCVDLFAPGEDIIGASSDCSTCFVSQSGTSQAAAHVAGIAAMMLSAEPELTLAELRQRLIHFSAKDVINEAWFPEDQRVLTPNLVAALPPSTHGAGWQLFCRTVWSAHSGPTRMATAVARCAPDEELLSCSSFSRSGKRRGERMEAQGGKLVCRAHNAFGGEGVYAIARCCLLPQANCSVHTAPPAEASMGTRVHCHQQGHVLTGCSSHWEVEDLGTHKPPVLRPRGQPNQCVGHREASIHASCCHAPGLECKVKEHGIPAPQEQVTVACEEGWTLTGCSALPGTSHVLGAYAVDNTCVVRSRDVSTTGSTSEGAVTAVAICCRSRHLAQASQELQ

B1: CD40 EC-Ig fusion protein, mutant E64S K81H L121P (Fc fusion)
chain: EPPTACREKQYLINSQCCSLCQPGQKLVSDCTEFTETECLPCGSSEFLDTWNRETHCHQHHYCDPNLGLRVQQKGTSETDTICTCEEGWHCTSEACESCVPHRSCSPGFGVKQIATGVSDTICEPCPVGFFSNVSSAFEKCHPWTSCETKDLVVQQAGTNKTDVVCGP
notes: COS7 culture supernatant; not shown: human IgG Fc tail
Consider B1, for which, in experiment [1], the binding result was “binds”.

B2: CD40 EC-Ig fusion protein, mutant E64Y K81T P85Y (Fc fusion)
chain: EPPTACREKQYLINSQCCSLCQPGQKLVSDCTEFTETECLPCGYSEFLDTWNRETHCHQHTYCDYNLGLRVQQKGTSETDTICTCEEGWHCTSEACESCVLHRSCSPGFGVKQIATGVSDTICEPCPVGFFSNVSSAFEKCHPWTSCETKDLVVQQAGTNKTDVVCGP
notes: COS7 culture supernatant; also called triple mutant E64Y K81T P85Y; not shown: human IgG Fc tail
As for B2, the binding result in experiment [1] is “binds”.

B3: hCD40-4s EC-mthIgG (Fc fusion)
chain: EPPTACREKQYLINSQCCSLCQPGQKLVSDCTEFTETECLPCGESEFLDTWNRETHCHQHKYCDPNLGLRVQQKGTSETDTICTCEEGWHCTSEACESCVLHRSCSPGFGVKQIATGVSDTICEPCPVGFFSNVSSAFEKCHPWTSCETKDLVVQQAGTNKTDVVCGPDLSGGGGSGGGGSGGGGSGGGGSTGLEPKSSDKTHTSPPSPAPELLGGSSVFLFPPKPKDTLMISRTPEVTCVVVDVSHEDPEVKFNWYVDGVEVHNAKTKPREEQYNSTYRVVSVLTVLHQDWLNGKEYKCKVSNKALPASIEKTISKAKGQPREPQVYTLPPSRDELTKNQVSLTCLVKGFYPSDIAVEWESNGQPENNYKTTPPVLDSDGSFFLYSKLTVDKSRWQQGNVFSCSVMHEALHNHYTQKSLSLSPGK
notes: also called human (h)CD40-SSSH-mthIgG1; hCD40mthIgG
In the case of B3, the binding result is “no binding” in experiment [2] and “binds” in experiment [3].
